Source: patent US20150299285A1
Bridges are numbered along the chain shown (N, C = ends). Primed or numbered codes have the meaning given here. Where no end group is shown, it is not given here. [ ]: non-standard residue; d: D form. PEG4′ = non-peptide PEG4 spacer in the linking moiety; PEG8″ = non-peptide PEG8 spacer in the linking moiety

What was measured:
Experiment in all cases: cell-based or functional assay
[1] = target: insulin receptor subtype A (human), P06213
[2] = target: insulin receptor subtype B (human), P06213
[3] = target: human IGF-1 receptor (human) (UniProt P08069)
[4] = target: insulin receptor subtype A (human) (UniProt P06213)
[5] = target: insulin receptor subtype B (human) (UniProt P06213)

| % Insulin Activity (in vitro; assay not stated) [1] | % Insulin Activity (in vitro; assay not stated) [2] | EC50, Receptor Phosphorylation [3] | EC50, Receptor Phosphorylation [4] | EC50, Receptor Phosphorylation [5] | Binder |
| --- | --- | --- | --- | --- | --- |
| 0.4% | 0.1% | – | – | – | MIU-68: B0, B22-PEG10K di-PEGylated B^1(H5,Y16,L17, K22)25-C^1(K8)-A^1(N18,21) (ligand, disulfide 18-56, 42-47, 6-43) {PEG 10 kDa}-GPEHLCGAELVDALYLVCGDK(PEG 10 kDa)GFYGYGSSSRKAPQTGIVDECCFRSCDLRRLENYCN |
| 61.4% | 17.4% | – | – | – | MIU-35: B^1(H5, H10, Y16, L17)25-C^1-A^1 (H8, N18, N21) (ligand) GPEHLCGAHLVDALYLVCGDRGFYGYGSSSRRAPQTGIVDECCHRSCDLRRLENYCN |
| – | – | 20.7 nM | 0.3 nM | 1.2 nM | DP19LysC (ligand) GPEHLCGAHLVDALYLVCGDRGFYGYGSSSRRAPQTGIVDECCHRSCDLRRLENYCN |
| 3.1% | 1.1% | – | – | – | MIU-57: B1-PEG20K B^1(H5,Y16,L17)25-C^1-A^1(N18,21), P05019 49-110 (ligand, disulfide 18-56, 42-47, 6-43) {PEG 20 kDa}-GPEHLCGAELVDALYLVCGDRGFYGYGSSSRRAPQTGIVDECCFRSCDLRRLENYCN |
| 14.8% | – | – | – | – | GPEHLCGAELVDALYLVCGDRGFY[PEG8″]K(PEG 20 kDa)[PEG4′]GIVDECCFRSCDLRRLENYCN (ligand, disulfide 18-47, 33-38, 6-34) [MIU-56: C8-PEG20K B^1(H5, Y16, L17)25-PEG8-K-PEG4-A^1(N18, N21)] |
| 19.7% | 5.8% | – | – | – | MIU-58: B1-PEG20K-B1- Dimer, P05019 49-110 (ligand, disulfide 18-56, 42-47, 6-43; also: dimer: two chains linked head to head via 20 kDa PEG) {PEG 20 kDa}-GPEHLCGAELVDALYLVCGDRGFYGYGSSSRRAPQTGIVDECCFRSCDLRRLENYCN |
| 0.2% | 0.1% | – | – | – | MIU-67: B0, C8-PEG10K di-PEGylated B^1(H5,Y16,L17)25-C^1(K8)-A^1(N18,21) (ligand, disulfide 18-56, 42-47, 6-43) {PEG 10 kDa}-GPEHLCGAELVDALYLVCGDRGFYGYGSSSRK(PEG 10 kDa)APQTGIVDECCFRSCDLRRLENYCN |
| 1% | 0.5% | – | – | – | MIU-69: B0, A14-PEG10K di-PEGylated B^1(H5,Y16,L17)25-C^1(K8)-A^1(K14, N18,21) (ligand, disulfide 18-56, 42-47, 6-43) {PEG 10 kDa}-GPEHLCGAELVDALYLVCGDRGFYGYGSSSRKAPQTGIVDECCFRSCDLK(PEG 10 kDa)RLENYCN |
